The test system of data set [1] is HeLa Kyoto. Kind of data set: melting temperature (median over replicates), in situ; higher = more thermally stable.
For data set [2], the system named is HeLa Kyoto. Kind of data set: thermal stability score vs G1/S (z-score of summed log2 fold changes over temperatures); higher = more thermally stable than in G1/S.
In data set [3] the test system is HeLa Kyoto. Description: solubility in G1/S (NP-40 vs SDS abundance) (log2 ratio); higher = more soluble. Particulars: cell cycle stage: G1/S.
The subject of data set [4] is HeLa Kyoto. Kind of data set: solubility change mitosis vs G1/S (difference of NP-40 vs SDS log2 ratios) (log2 ratio difference); higher = more soluble in mitosis.
The mark [5] stands for this setting: cell cycle stage: early G1 (4.5 h after nocodazole release).
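Throughout, for melting temperature (median over replicates), in situ: HeLa Kyoto cells synchronized by double thymidine or nocodazole block, proteins quantified by TMT10plex mass spectrometry, three independent biological replicates.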
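Throughout, for solubility change mitosis vs G1/S (difference of NP-40 vs SDS log2 ratios): synchronized HeLa Kyoto cells (double thymidine block for G1/S, nocodazole release for mitosis), protein amounts in NP-40 versus SDS lysates quantified by mass spectrometry, three biological replicates.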
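Throughout, for solubility in G1/S (NP-40 vs SDS abundance): HeLa Kyoto cells arrested at G1/S by double thymidine block, proteins quantified by TMT10plex mass spectrometry in mild NP-40 versus SDS extracts, three biological replicates.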
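Throughout, for thermal stability score vs G1/S (z-score of summed log2 fold changes over temperatures): synchronized HeLa Kyoto cells, proteins quantified by TMT10plex mass spectrometry, three biological replicates, mitosis taken 0.5 h after nocodazole release, G1/S directly after double thymidine block.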

In the case of “MGTPKPRILPWLVSQLDLGQLEGVAWVNKSRTRFRIPWKHGLRQDAQQEDFGIFQAWAEATGAYVPGRDKPDLPTWKRNFRSALNRKEGLRLAEDRSKDPHDPHKIYEFVNSGVGDFSQPDTSPDTNGGGSTSDTQEDILDELLGNMVLAPLPDPGPPSLAVAPEPCPQPLRSPSLDNPTPFPNLGPSENPLKRLLVPGEEWEFEVTAFYRGRQVFQQTISCPEGLRLVGSEVGDRTLPGWPVTLPDPGMSLTDRGVMSYVRHVLSCLGGGLALWRAGQWLWAQRLGHCHTYWAVSEELLPNSGHGPDGEVPKDKEGGVFDLGPFIVDLITFTEGSGRSPRYALWFCVGESWPQDQPWTKRLVMVKVVPTCLRALVEMARVGGASSLENTVDLHISNSHPLSLTSDQYKAYLQDLVEGMDFQGPGES [IRF3]”, the melting temperature in the data set with HeLa Kyoto [1] (cell cycle stage: G1/S) stood at 51.4 °C; in the data set on HeLa Kyoto [1] (cell cycle stage: mitosis) it was 51.7 °C. Also, the thermal stability score was determined as 0.111 in the data set with HeLa Kyoto [2] (setting [5]) and 1.23 in the data set on HeLa Kyoto [2] (cell cycle stage: mitosis). The “solubility in G1/S (log2)” value with HeLa Kyoto [3] was -0.0358. Besides, in the data set on HeLa Kyoto [4], the “solubility change mitosis (log2)” value stood at 0.174.

On to “MSSVAVLTQESFAEHRSGLVPQQIKVATLNSEEESDPPTYKDAFPPLPEKAACLESAQEPAGAWGNKIRPIKASVITQVFHVPLEERKYKDMNQFGEGEQAKICLEIMQRTGAHLELSLAKDQGLSIMVSGKLDAVMKARKDIVARLQTQASATVAIPKEHHRFVIGKNGEKLQDLELKTATKIQIPRPDDPSNQIKITGTKEGIEKARHEVLLISAEQDKRAVERLEVEKAFHPFIAGPYNRLVGEIMQETGTRINIPPPSVNRTEIVFTGEKEQLAQAVARIKKIYEEKKKKTTTIAVEVKKSQHKYVIGPKGNSLQEILERTGVSVEIPPSDSISETVILRGEPEKLGQALTEVYAKANSFTVSSVAAPSWLHRFIIGKKGQNLAKITQQMPKVHIEFTEGEDKITLEGPTEDVNVAQEQIEGMVKDLINRMDYVEINIDHKFHRHLIGKSGANINRIKDQYKVSVRIPPDSEKSNLIRIEGDPQGVQQAKRELLELASRMENERTKDLIIEQRFHRTIIGQKGERIREIRDKFPEVIINFPDPAQKSDIVQLRGPKNEVEKCTKYMQKMVADLVENSYSISVPIFKQFHKNIIGKGGANIKKIREESNTKIDLPAENSNSETIIITGKRANCEAARSRILSIQKDLANIAEVEVSIPAKLHNSLIGTKGRLIRSIMEECGGVHIHFPVEGSGSDTVVIRGPSSDVEKAKKQLLHLAEEKQTKSFTVDIRAKPEYHKFLIGKGGGKIRKVRDSTGARVIFPAAEDKDQDLITIIGKEDAVREAQKELEALIQNLDNVVEDSMLVDPKHHRHFVIRRGQVLREIAEEYGGVMVSFPRSGTQSDKVTLKGAKDCVEAAKKRIQEIIEDLEAQVTLECAIPQKFHRSVMGPKGSRIQQITRDFSVQIKFPDREENAVHSTEPVVQENGDEAGEGREAKDCDPGSPRRCDIIIISGRKEKCEAAKEALEALVPVTIEVEVPFDLHRYVIGQKGSGIRKMMDEFEVNIHVPAPELQSDIIAITGLAANLDRAKAGLLERVKELQAEQEDRALRSFKLSVTVDPKYHPKIIGRKGAVITQIRLEHDVNIQFPDKDDGNQPQDQITITGYEKNTEAARDAILRIVGELEQMVSEDVPLDHRVHARIIGARGKAIRKIMDEFKVDIRFPQSGAPDPNCVTVTGLPENVEEAIDHILNLEEEYLADVVDSEALQVYMKPPAHEEAKAPSRGFVVRDAPWTASSSEKAPDMSSSEEFPSFGAQVAPKTLPWGPKR [HDLBP]”, for which the melting temperature stood at 46.8 °C in the data set on HeLa Kyoto [1] (cell cycle stage: G1/S) and 47.6 °C in the data set with HeLa Kyoto [1] (cell cycle stage: mitosis). Besides, the thermal stability score in the data set on HeLa Kyoto [2] (setting [5]) worked out at 1.14; in the data set on HeLa Kyoto [2] (cell cycle stage: mitosis), 3.41. Also, the “solubility in G1/S (log2)” value with HeLa Kyoto [3] was found to be 0.183. In addition, in the data set with HeLa Kyoto [4], the “solubility change mitosis (log2)” value was -0.084.

As for “MAQLGKLLKEQKYDRQLRLWGDHGQEALESAHVCLINATATGTEILKNLVLPGIGSFTIIDGNQVSGEDAGNNFFLQRSSIGKNRAEAAMEFLQELNSDVSGSFVEESPENLLDNDPSFFCRFTVVVATQLPESTSLRLADVLWNSQIPLLICRTYGLVGYMRIIIKEHPVIESHPDNALEDLRLDKPFPELREHFQSYDLDHMEKKDHSHTPWIVIIAKYLAQWYSETNGRIPKTYKEKEDFRDLIRQGILKNENGAPEDEENFEEAIKNVNTALNTTQIPSSIEDIFNDDRCINITKQTPSFWILARALKEFVAKEGQGNLPVRGTIPDMIADSGKYIKLQNVYREKAKKDAAAVGNHVAKLLQSIGQAPESISEKELKLLCSNSAFLRVVRCRSLAEEYGLDTINKDEIISSMDNPDNEIVLYLMLRAVDRFHKQQGRYPGVSNYQVEEDIGKLKSCLTGFLQEYGLSVMVKDDYVHEFCRYGAAEPHTIAAFLGGAAAQEVIKIITKQFVIFNNTYIYSGMSQTSATFQL [NAE1]”, the melting temperature in the data set on HeLa Kyoto [1] (cell cycle stage: G1/S) turned out to be 51.5 °C; in the data set with HeLa Kyoto [1] (cell cycle stage: mitosis), 51.3 °C. In addition, the thermal stability score was determined as 0.0621 with HeLa Kyoto [2] (setting [5]) and 0.146 in the data set on HeLa Kyoto [2] (cell cycle stage: mitosis). Also, in the data set with HeLa Kyoto [3], the “solubility in G1/S (log2)” value turned out to be 0.0839. For the same sequence, in the data set with HeLa Kyoto [4], the “solubility change mitosis (log2)” value was -0.191.

On to “MYGASGGRAKPERKSGAKEEAGPGGAGGGGSRVELLVFGYACKLFRDDERALAQEQGQHLIPWMGDHKILIDRYDGRGHLHDLSEYDAEYSTWNRDYQLSEEEARIEALCDEERYLALHTDLLEEEARQEEEYKRLSEALAEDGSYNAVGFTYGSDYYDPSEPTEEEEPSKQREKNEAENLEENEEPFVAPLGLSVPSDVELPPTAKMHAIIERTASFVCRQGAQFEIMLKAKQARNSQFDFLRFDHYLNPYYKFIQKAMKEGRYTVLAENKSDEKKKSGVSSDNEDDDDEEDGNYLHPSLFASKKCNRLEELMKPLKVVDPDHPLAALVRKAQADSSTPTPHNADGAPVQPSQVEYTADSTVAAMYYSYYMLPDGTYCLAPPPPGIDVTTYYSTLPAGVTVSNSPGVTTTAPPPPGTTPLPPPTTAETSSGATSTTTTTSALAPVAAIIPPPPDVQPVIDKLAEYVARNGLKFETSVRAKNDQRFEFLQPWHQYNAYYEFKKQFFLQKEGGDSMQAVSAPEEAPTDSAPEKPSDAGEDGAPEDAAEVGARAGSGGKKEASSSKTVPDGKLVKASFAPISFAIKAKENDLLPLEKNRVKLDDDSDDDEESKEGQESSSSAANTNPAVAPPCVVVEEKKPQLTQEELEAKQAKQKLEDRLAAAAREKLAQASKESKEKQLQAERKRKAALFLQTLKNPLPEAEAGKIEESPFSVEESSTTPCPLLTGGRPLPTLEVKPPDRPSSKSKDPPREEEKEKKKKKHKKRSRTRSRSPKYHSSSKSRSRSHSKAKHSLPSAYRTVRRSRSRSRSPRRRAHSPERRREERSVPTAYRVSRSPGASRKRTRSRSPHEKKKKRRSRSRTKSKARSQSVSPSKQAAPRPAAPAAHSAHSASVSPVESRGSSQERSRGVSQEKEAQISSAIVSSVQSKITQDLMAKVRAMLAASKNLQTSAS [SFSWAP]”, for which the melting temperature in the data set with HeLa Kyoto [1] (cell cycle stage: G1/S) is 50.4 °C; in the data set with HeLa Kyoto [1] (cell cycle stage: mitosis), 50.6 °C. The thermal stability score in the data set with HeLa Kyoto [2] (setting [5]) is -0.391; in the data set with HeLa Kyoto [2] (cell cycle stage: mitosis), -0.0438. The “solubility in G1/S (log2)” value in the data set on HeLa Kyoto [3] was -0.526. For the same sequence, in the data set with HeLa Kyoto [4], the “solubility change mitosis (log2)” value amounted to 0.468.

“MRCLAARVNYKTLIIICALFTLVTVLLWNKCSSDKAIQFPRRSSSGFRVDGFEKRAAASESNNYMNHVAKQQSEEAFPQEQQKAPPVVGGFNSNVGSKVLGLKYEEIDCLINDEHTIKGRREGNEVFLPFTWVEKYFDVYGKVVQYDGYDRFEFSHSYSKVYAQRAPYHPDGVFMSFEGYNVEVRDRVKCISGVEGVPLSTQWGPQGYFYPIQIAQYGLSHYSKNLTEKPPHIEVYETAEDRDKNKPNDWTVPKGCFMANVADKSRFTNVKQFIAPETSEGVSLQLGNTKDFIISFDLKFLTNGSVSVVLETTEKNQLFTIHYVSNAQLIAFKERDIYYGIGPRTSWSTVTRDLVTDLRKGVGLSNTKAVKPTKIMPKKVVRLIAKGKGFLDNITISTTAHMAAFFAASDWLVRNQDEKGGWPIMVTRKLGEGFKSLEPGWYSAMAQGQAISTLVRAYLLTKDHIFLNSALRATAPYKFLSEQHGVKAVFMNKHDWYEEYPTTPSSFVLNGFMYSLIGLYDLKETAGEKLGKEARSLYERGMESLKAMLPLYDTGSGTIYDLRHFMLGIAPNLARWDYHTTHINQLQLLSTIDESPVFKEFVKRWKSYLKGSRAKHN [GLCE]”: the melting temperature in the data set with HeLa Kyoto [1] (cell cycle stage: G1/S) and in the data set on HeLa Kyoto [1] (cell cycle stage: mitosis) was 53.9 °C in each case. Besides, the thermal stability score with HeLa Kyoto [2] (setting [5]) was -0.914; in the data set with HeLa Kyoto [2] (cell cycle stage: mitosis), -0.99. In addition, the “solubility in G1/S (log2)” value in the data set with HeLa Kyoto [3] was -0.0659. The “solubility change mitosis (log2)” value with HeLa Kyoto [4] is -0.162.

Source of the values: the supplement of paper PMC5998384.
